Source: paper PMC5881884 (Biochimica et biophysica acta, 2017)

Molecular target: the molecule itself
Assay: native gel or EMSA

B1: 14-3-3ζ pseudo-WT (C25A, C189A) (natural protein)
chain: MDKNELVQKAKLAEQAERYDDMAAAMKSVTEQGAELSNEERNLLSVAYKNVVGARRSSWRVVSSIEQKTEGAEKKQQMAREYREKIETELRDICNDVLSLLEKFLIPNASQAESKVFYLKMKGDYYRYLAEVAAGDDKKGIVDQSQQAYQEAFEISKKEMQPTHPIRLGLALNFSVFYYEILNSPEKAASLAKTAFDEAIAELDTLSEESYKDSTLIMQLLRDNLTLWTSDTQGDEAEAGEGGEN
Which “stoichiometry N” value does the source give for B1 here?
The value was 2.
